Experiments:
[1] = target: T1, cdMMP‐3 (Homo sapiens, UniProt P08254); assay: Gelatin‐Sepharose bound serum proMMP‐9 activation by cdMMP‐3, zymography; type: biochemical; details: 5 μl serum, 0-14.2 nM cdMMP‐3, 3 h, 37 °C, CDG patients n = 5, healthy controls n = 7, Fig. 8
[2] = target: T1, cdMMP‐3; assay: Stepwise activation of proMMP‐9 glycoforms by cdMMP‐3, gelatin zymography; type: biochemical; details: with galectin‐3 (1/10), Fig. 9B

T1 sequence (P08254 100-272 limits assumed): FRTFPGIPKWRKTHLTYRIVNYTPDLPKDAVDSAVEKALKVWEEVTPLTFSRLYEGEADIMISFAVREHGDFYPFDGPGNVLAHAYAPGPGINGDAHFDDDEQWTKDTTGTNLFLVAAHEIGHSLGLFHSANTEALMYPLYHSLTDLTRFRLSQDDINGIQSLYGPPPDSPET

| activation of serum proMMP‐9 by MMP‐3 [1] | Molecule | conversion into active form on overnight incubation with cdMMP‐3 and galectin‐3 [2] |
| --- | --- | --- |
| significantly faster activation | proMMP‐9 from CDG patients: serum proMMP‐9 of PMM2‐CDG patients, defective N‐glycosylation (protein, UniProt P14780 20-707, looked up, pro-form) pro-form: APRQRQSTLVLFPGDLRTNLTDRQLAEEYLYRYGYTRVAEMRGESKSLGPALLLLQKQLSLPETGELDSATLKAMRTPRCGVPDLGRFQTFEGDLKWHHHNITYWIQNYSEDLPRAVIDDAFARAFALWSAVTPLTFTRVYSRDADIVIQFGVAEHGDGYPFDGKDGLLAHAFPPGPGIQGDAHFDDDELWSLGKGVVVPTRFGNADGAACHFPFIFEGRSYSACTTDGRSDGLPWCSTTANYDTDDRFGFCPSERLYTQDGNADGKPCQFPFIFQGQSYSACTTDGRSDGYRWCATTANYDRDKLFGFCPTRADSTVMGGNSAGELCVFPFTFLGKEYSTCTSEGRGDGRLWCATTSNFDSDKKWGFCPDQGYSLFLVAAHEFGHALGLDHSSVPEALMYPMYRFTEGPPLHKDDVNGIRHLYGPRPEPEPRPPTTTTPQPTAPPTVCPTGPPTVHPSERPTAGPTGPPSAGPTGPPTAGPSTATTVPLSPVDDACNVNIFDAIAEIGNQLYLFKDGKYWRFSEGRGSRPQGPFLIADKWPALPRKLDSVFEERLSKKLFFFSGRQVWVYTGASVLGPRRLDKLGLGADVAQVTGALRSGRGKMLLFSGRRLWRFDVKAQMVDPRSASEVDRMFPGVPLDTHDVFQYREKAYFCQDRFYWRVSSRSELNQVDQVGYVTYDILQCPED | – |
| – | recombinant proMMP‐9: recombinant full‐length human proMMP‐9 expressed in Sf‐9 insect cells (protein, UniProt P14780 20-707, looked up, pro-form) pro-form: APRQRQSTLVLFPGDLRTNLTDRQLAEEYLYRYGYTRVAEMRGESKSLGPALLLLQKQLSLPETGELDSATLKAMRTPRCGVPDLGRFQTFEGDLKWHHHNITYWIQNYSEDLPRAVIDDAFARAFALWSAVTPLTFTRVYSRDADIVIQFGVAEHGDGYPFDGKDGLLAHAFPPGPGIQGDAHFDDDELWSLGKGVVVPTRFGNADGAACHFPFIFEGRSYSACTTDGRSDGLPWCSTTANYDTDDRFGFCPSERLYTQDGNADGKPCQFPFIFQGQSYSACTTDGRSDGYRWCATTANYDRDKLFGFCPTRADSTVMGGNSAGELCVFPFTFLGKEYSTCTSEGRGDGRLWCATTSNFDSDKKWGFCPDQGYSLFLVAAHEFGHALGLDHSSVPEALMYPMYRFTEGPPLHKDDVNGIRHLYGPRPEPEPRPPTTTTPQPTAPPTVCPTGPPTVHPSERPTAGPTGPPSAGPTGPPTAGPSTATTVPLSPVDDACNVNIFDAIAEIGNQLYLFKDGKYWRFSEGRGSRPQGPFLIADKWPALPRKLDSVFEERLSKKLFFFSGRQVWVYTGASVLGPRRLDKLGLGADVAQVTGALRSGRGKMLLFSGRRLWRFDVKAQMVDPRSASEVDRMFPGVPLDTHDVFQYREKAYFCQDRFYWRVSSRSELNQVDQVGYVTYDILQCPED | fully converted into its active form |

Source: publication PMC7379967 (The Febs Journal, 2018)
